# Source: patent US20240026407A1, “MODIFICATION OF SAPONINS” (GLAXOSMITHKLINE BIOLOGICALS SA, priority 2020, published 2024)
# B1: 1082 (protein, listed as Streptomyces avermitilis)
# chain: MSALRVTSPSVEYVQRPLGLDAAHPRLSWPMASAAPGRRQSAYQVRVASSAAGLSHPDVWDSGKVVSDDSVLVPYAGPPLKPRTRYFWSVRVWDADGGASEWSAPSWWETGLMGASQWSAKWISAPAPLTEAPSLEGSSWIWFPEGEPANSAPAATRWFRRTVDLPDDITGATLAISADNVYAVSVDGAEVARTDLEADNEGWRRPAVIDVLDHVHSGNNTLAVSASNASVGPAGWICVLVLTTASGEKKIFSDASWKSTDHEPADGWREPDFDDSGWPAAKVAAAWGAGPWGRVAPVASAANQLRHEFRLPHKKVSRARLYATALGLYEAHLNGRRVGRDQLAPGWTDYRKRVQYQTYDVTSSVRPGANALAAYVAPGWYAGNVGMFGPHQYGERPALLAQLEVEYADGTSERITSGPDWRAASGPIVSADLLSGETYDARKETAGWTSPGFDDRAWLAVRGADNDVPEQIVAQVDGPVRIAKELPARKVTEPKPGVFVLDLGQNMVGSVRLRVSGDAGTTVRLRHAEVLNPDGTIYTANLRSAAATDTYTLKGQGEETYEPRFTFHGFRYVEVTGFPGKPSTTSVTGRVMHTSAPFTFEFETNVPMLNKLHSNITWGQRGNFLSVPTDTPARDERLGWTGDINVFAPTAAYTMESARFLTKWLVDLRDAQTSDGAFTDVAPAVGNLGNGVAGWGDAGVTVPWALYQAYGDRQVLADALPSVHAWLRYLEKHSDGLLRPADGYGDWLNVSDETPKDVIATAYFAHSADLAARMATELGKDAAPYTDLFTRIRKAFQTAYVASDGKVKGDTQSAYVLTLSMNLVPDALRKAAADRLVALIEAKDWHLSTGFLGTPRLLPVLTDTGHTDVAYRLLHQRTFPSWGYPIDKGSTTMWERWDSIQPDGGFQTPEMNSFNHYAYGSVGEWMYANIAGIAPGRAGYRQVVIRPRPGGEVTSARATFASLHGPVSTRWQQRSGGFVLTCSVPPNTTAEVWIPADHPDRVQHTHGTFVRAEDGCAVFEVGSGSHRFTV
# B2: 1076 (protein, listed as Kribbella flavida)
# chain: MSFRTRFGCLLAAVLLLTPLVPATGSPPATRETLQVRNLKTNNLTNPLGVPGTPPRLSWQLDGDRRGITQSRYQIRVASTPAKTARPDIWDSGVVRSTDSIEVPYGGPALTTGTAYHWTVRVWDDAGKASAWSPVATFETGPLRPGDWQGDWIGADNQPGPEWTDTTIDADVTLVKDALGVFFRGRGGVGYMWQLNQLTPDKPLLRPHVRQPGGGYVLLGEIPLAAGTDLKQRHHLRITVAGRTITTWLDGVQVDSRERSDHNAPGVVGFRTDGAEHGVVHSLKVTNVAGEVLVDTAFPAGDQTFPDGTVRAEGGLQVKGTTDLWLPGKPIPVFRKAISLPKAKKVASARIDAAAQGIYELTVNGRKAGDHQLAPGWTDYARRIQSQTYDVTKLLKSGANTLGAEVAPGWFTGNLAMFGPNKYGTDTAFIAQLRVTYTDGTADVFATDSSWQTAPGAVRVADLLNGESYDARRTASEWVPAQVRPSATAKIVPQTDQPVRVTQELKARAIPSPTPGAYLYDLGQNMVGIARLTLHGRPGQTVKIRYGEVLNPDGTLYTDNLRSAKATDHYTFATSRPETYQPRFTFHGFRYVEVSGLPTAPPASAIVGVVLGTDAEQVNEFRTNSPLVNQLHSNIVWGQRGNFLSIPTDTPARDERMGWTGDINVFARTAVYNLDSQAFLTKWLQDLRDTQRADGAYASVAPTVPNSFDGGMGNAGWADAGVNVPWTLWQAYGDTSVIRQHYASMTRYVDYLVASSNGLIRGGGDYGDWLNLDDPTPGELIGTSFVAKGARQLSQMAAAIGHTADAAKYQRVYEDVRAAFAARFVAADGKVGSDSQTGYILAFTSDLVPADRIAAAGEHFAATILRRDTHLSTGFLGVDGLLPVLTKIGRTDLAYRLLQNTSYPSWGYEIGKGATTIWERWNSINPDGTFNDVGMNSFNHYAYGAVGEWMYRTLAGLSAAEPGYRKALIAPTPGDGIDTAQLRHRTPYGEVGSQWRRLADGRFTLEVEVPANTTATVRLPAAEARQITESGRALSRAVGVSGVVDEGTTVALTVGSGNYRFAVRP
# Columns and labels:
# Format in all cases: biochemical, Quillaja saponaria
# [1] = Experiment 6-3: screening of rhamnosidases for derhamnosylation of saponins in crude bark extract (80%), relative % of Left, Middle and Right Peak by UV HPLC; conditions: CBE 80%, pH 7.4, 30 degC, 19.5 h; for Left Peak: mainly QS-17 family, negative control 27%; for Middle Peak: mainly QS-18 and desglucosyl-QS-17 family, negative control 48%; for Right Peak: mainly QS-21 family, negative control 26%
# Method in brief: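 Clarified lysates of expressed rhamnosidase variants were incubated with crude bark extract (pH 7.4, final 80%) at 30 degC with shaking for 19.5 h, then quenched with MeCN+2% AcOH. UV HPLC gave relative % of Left (QS-17), Middle (QS-18/desglucosyl-QS-17) and Right (QS-21) peaks.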
# [2] = Experiment 6-1: specificity of rhamnosidases towards other rhamnose residues (C3 saccharide rhamnose, C28 saccharide rhamnose); conditions: TBE 2%, pH 7.5, 30 degC, 18 h; LCMS/MS; negative controls 0.18, 0.17
# [3] = Experiment 6-1: screening of rhamnosidases for derhamnosylation of saponins in treated bark extract (2%), QS-17 2296 to QS-18 2150 (PAR %); conditions: TBE 2%, pH 7.5, 30 degC, 18 h; TIC peak area ratio percent of rhamnosylated starting saponin to derhamnosylated product, LCMS/MS; negative controls 4.876, 5.225
# [4] = Experiment 6-2: screening of rhamnosidases for derhamnosylation of saponins in treated bark extract (25%), relative % of Left, Middle and Right Peak by UV HPLC; conditions: TBE 25%, pH 7.4, 19.5 h; for Left Peak: mainly QS-17 family, negative control 24%; for Middle Peak: mainly QS-18 and desglucosyl-QS-17 family, negative control 50%; for Right Peak: mainly QS-21 family, negative control 26%
# [5] = Experiment 6-1: screening of rhamnosidases for derhamnosylation of saponins in treated bark extract (2%), QS-17 2310 to QS-18 2164 (PAR %); conditions: TBE 2%, pH 7.5, 30 degC, 18 h; TIC peak area ratio percent, LCMS/MS; negative controls 3.061, 2.429
# [6] = Experiment 6-1: screening of rhamnosidases for derhamnosylation of saponins in treated bark extract (2%), desglucosyl-QS-17 2134 to QS-21 1988 (PAR %); conditions: TBE 2%, pH 7.5, 30 degC, 18 h; TIC peak area ratio percent, LCMS/MS; negative controls 2.719, 2.158
molecule,measurement,setting,value
B1,Left Peak,[1],26%
same,Middle Peak,[1],47%
same,Right Peak,[1],27%
same,ratio PP/QS-21,[2],0.21
same,QS-17 (PAR %),[3],3.122%
same,Left Peak,[4],19%
same,Middle Peak,[4],55%
same,Right Peak,[4],26%
same,Peak57 (PAR %),[5],0.000%
same,Peak75 (PAR %),[6],1.614%
B2,Left Peak,[1],26%
same,Middle Peak,[1],48%
same,Right Peak,[1],27%
same,ratio PP/QS-21,[2],0.19
same,QS-17 (PAR %),[3],3.766%
same,Left Peak,[4],22%
same,Middle Peak,[4],52%
same,Right Peak,[4],26%
same,Peak57 (PAR %),[5],1.295%
same,Peak75 (PAR %),[6],1.961%
